Measured values: paper PMC6613617, “Human DNA polymerase delta requires an iron–sulfur cluster for high-fidelity DNA synthesis”

What was measured:
[1] = biological target: T1, POLD1-CS;POLD2;POLD3;POLD4 (Homo sapiens;Homo sapiens;Homo …, UniProt P28340;P49005;Q15054;Q9HCU8 1-1107;1-469;1-466;1-107, C1076S|||); assay: EMSA; without PCNA; no defect; EMSA: 20 mM Tris-HCl pH 8.0, 20 mM KCl, 1 mM EDTA, 0.5 mM TCEP, 20 nM probe, 10-80 nM Pol delta, 25 C 30 min; 7% native PAGE, 0.5x TBE; conditions: protein: recombinant;recombinant;recombinant;recombinant; copies: 1;1;1;1; label: 5'-fluorescein (FAM); single strand
[2] = biological target: T2, POLD1-CS;POLD2;POLD3;POLD4;PCNA (Homo sapiens;Homo sapiens;Homo …, UniProt P28340;P49005;Q15054;Q9HCU8;P12004 1-1107;1-469;1-466;1-107;1-261, C1076S||||); assay: EMSA; copurified with PCNA; no defect; EMSA: 20 mM Tris-HCl pH 8.0, 20 mM KCl, 1 mM EDTA, 0.5 mM TCEP, 20 nM probe, 10-80 nM Pol delta, 25 C 30 min; 7% native PAGE, 0.5x TBE; conditions: protein: recombinant;recombinant;recombinant;recombinant;recombinant; copies: 1;1;1;1;3; label: 5'-fluorescein (FAM); single strand
[3] = biological target: T1, POLD1-CS;POLD2;POLD3;POLD4; assay: EMSA; without PCNA; less second (super-shifted) band than WT; EMSA: 20 mM Tris-HCl pH 8.0, 20 mM KCl, 1 mM EDTA, 0.5 mM TCEP, 20 nM probe, 10-80 nM Pol delta, 25 C 30 min; 7% native PAGE, 0.5x TBE; conditions: protein: recombinant;recombinant;recombinant;recombinant; copies: 1;1;1;1; label: 5'-fluorescein (FAM) on strand 1; 5' overhang 16 nt on template strand 2; one unpaired A in strand 2 as printed
[4] = biological target: POLD1-HY;POLD2;POLD3;POLD4;PCNA (Homo sapiens;Homo sapiens;Homo …, UniProt P28340;P49005;Q15054;Q9HCU8;P12004 1-1107;1-469;1-466;1-107;1-261, H1066Y||||); assay: EMSA; copurified with PCNA; EMSA: 20 mM Tris-HCl pH 8.0, 20 mM KCl, 1 mM EDTA, 0.5 mM TCEP, 20 nM probe, 10-80 nM Pol delta, 25 C 30 min; 7% native PAGE, 0.5x TBE; conditions: protein: recombinant;recombinant;recombinant;recombinant;recombinant; copies: 1;1;1;1;3; label: 5'-fluorescein (FAM) on strand 1; 5' overhang 16 nt on template strand 2; one unpaired A in strand 2 as printed
[5] = biological target: POLD1-HW;POLD2;POLD3;POLD4;PCNA (Homo sapiens;Homo sapiens;Homo …, UniProt P28340;P49005;Q15054;Q9HCU8;P12004 1-1107;1-469;1-466;1-107;1-261, H1066W||||); assay: as above; conditions: protein: recombinant;recombinant;recombinant;recombinant;recombinant; copies: 1;1;1;1;3; label: 5'-fluorescein (FAM) on strand 1; 5' overhang 16 nt on template strand 2; one unpaired A in strand 2 as printed
[6] = biological target: POLD1 WT (catalytic subunit of Pol delta);POLD2;POLD3;POLD4;PCNA (Homo sapiens;Homo sapiens;Homo …, UniProt P28340;P49005;Q15054;Q9HCU8;P12004 1-1107;1-469;1-466;1-107;1-261, ||||); assay: as above; conditions: protein: recombinant;recombinant;recombinant;recombinant;recombinant; copies: 1;1;1;1;3; label: 5'-fluorescein (FAM) on strand 1; 5' overhang 16 nt on template strand 2; one unpaired A in strand 2 as printed
[7] = biological target: T3, POLD1-HY;POLD2;POLD3;POLD4 (Homo sapiens;Homo sapiens;Homo …, UniProt P28340;P49005;Q15054;Q9HCU8 1-1107;1-469;1-466;1-107, H1066Y|||); assay: EMSA; without PCNA; EMSA: 20 mM Tris-HCl pH 8.0, 20 mM KCl, 1 mM EDTA, 0.5 mM TCEP, 20 nM probe, 10-80 nM Pol delta, 25 C 30 min; 7% native PAGE, 0.5x TBE; conditions: protein: recombinant;recombinant;recombinant;recombinant; copies: 1;1;1;1; label: 5'-fluorescein (FAM) on strand 1; 5' overhang 16 nt on template strand 2; one unpaired A in strand 2 as printed
[8] = biological target: POLD1 WT (catalytic subunit of Pol delta);POLD2;POLD3;POLD4 (Homo sapiens;Homo sapiens;Homo …, UniProt P28340;P49005;Q15054;Q9HCU8 1-1107;1-469;1-466;1-107, |||); assay: as above; conditions: protein: recombinant;recombinant;recombinant;recombinant; copies: 1;1;1;1; label: 5'-fluorescein (FAM) on strand 1; 5' overhang 16 nt on template strand 2; one unpaired A in strand 2 as printed
[9] = biological target: T4, POLD1-HW;POLD2;POLD3;POLD4 (Homo sapiens;Homo sapiens;Homo …, UniProt P28340;P49005;Q15054;Q9HCU8 1-1107;1-469;1-466;1-107, H1066W|||); assay: as above; conditions: protein: recombinant;recombinant;recombinant;recombinant; copies: 1;1;1;1; label: 5'-fluorescein (FAM) on strand 1; 5' overhang 16 nt on template strand 2; one unpaired A in strand 2 as printed
[10] = biological target: T2, POLD1-CS;POLD2;POLD3;POLD4;PCNA; assay: EMSA; copurified with PCNA; less second (super-shifted) band than WT; EMSA: 20 mM Tris-HCl pH 8.0, 20 mM KCl, 1 mM EDTA, 0.5 mM TCEP, 20 nM probe, 10-80 nM Pol delta, 25 C 30 min; 7% native PAGE, 0.5x TBE; conditions: protein: recombinant;recombinant;recombinant;recombinant;recombinant; copies: 1;1;1;1;3; label: 5'-fluorescein (FAM) on strand 1; 5' overhang 16 nt on template strand 2; one unpaired A in strand 2 as printed
[11] = biological target: T2, POLD1-CS;POLD2;POLD3;POLD4;PCNA; assay: EMSA; copurified with PCNA; defect alleviated; EMSA: 20 mM Tris-HCl pH 8.0, 20 mM KCl, 1 mM EDTA, 0.5 mM TCEP, 20 nM probe, 10-80 nM Pol delta, 25 C 30 min; 7% native PAGE, 0.5x TBE; conditions: protein: recombinant;recombinant;recombinant;recombinant;recombinant; copies: 1;1;1;1;3; label: 5'-fluorescein (FAM) on strand 1; blunt; one unpaired A in strand 2 as printed
[12] = biological target: T3, POLD1-HY;POLD2;POLD3;POLD4; assay: EMSA; without PCNA; not impaired; EMSA: 20 mM Tris-HCl pH 8.0, 20 mM KCl, 1 mM EDTA, 0.5 mM TCEP, 20 nM probe, 10-80 nM Pol delta, 25 C 30 min; 7% native PAGE, 0.5x TBE; conditions: protein: recombinant;recombinant;recombinant;recombinant; copies: 1;1;1;1; label: 5'-fluorescein (FAM) on strand 1; blunt; one unpaired A in strand 2 as printed
[13] = biological target: T4, POLD1-HW;POLD2;POLD3;POLD4; assay: as above; conditions: protein: recombinant;recombinant;recombinant;recombinant; copies: 1;1;1;1; label: 5'-fluorescein (FAM) on strand 1; blunt; one unpaired A in strand 2 as printed

Measured: binding result

T1 sequence (P28340 whole entry C1076S, chain 1 of 4): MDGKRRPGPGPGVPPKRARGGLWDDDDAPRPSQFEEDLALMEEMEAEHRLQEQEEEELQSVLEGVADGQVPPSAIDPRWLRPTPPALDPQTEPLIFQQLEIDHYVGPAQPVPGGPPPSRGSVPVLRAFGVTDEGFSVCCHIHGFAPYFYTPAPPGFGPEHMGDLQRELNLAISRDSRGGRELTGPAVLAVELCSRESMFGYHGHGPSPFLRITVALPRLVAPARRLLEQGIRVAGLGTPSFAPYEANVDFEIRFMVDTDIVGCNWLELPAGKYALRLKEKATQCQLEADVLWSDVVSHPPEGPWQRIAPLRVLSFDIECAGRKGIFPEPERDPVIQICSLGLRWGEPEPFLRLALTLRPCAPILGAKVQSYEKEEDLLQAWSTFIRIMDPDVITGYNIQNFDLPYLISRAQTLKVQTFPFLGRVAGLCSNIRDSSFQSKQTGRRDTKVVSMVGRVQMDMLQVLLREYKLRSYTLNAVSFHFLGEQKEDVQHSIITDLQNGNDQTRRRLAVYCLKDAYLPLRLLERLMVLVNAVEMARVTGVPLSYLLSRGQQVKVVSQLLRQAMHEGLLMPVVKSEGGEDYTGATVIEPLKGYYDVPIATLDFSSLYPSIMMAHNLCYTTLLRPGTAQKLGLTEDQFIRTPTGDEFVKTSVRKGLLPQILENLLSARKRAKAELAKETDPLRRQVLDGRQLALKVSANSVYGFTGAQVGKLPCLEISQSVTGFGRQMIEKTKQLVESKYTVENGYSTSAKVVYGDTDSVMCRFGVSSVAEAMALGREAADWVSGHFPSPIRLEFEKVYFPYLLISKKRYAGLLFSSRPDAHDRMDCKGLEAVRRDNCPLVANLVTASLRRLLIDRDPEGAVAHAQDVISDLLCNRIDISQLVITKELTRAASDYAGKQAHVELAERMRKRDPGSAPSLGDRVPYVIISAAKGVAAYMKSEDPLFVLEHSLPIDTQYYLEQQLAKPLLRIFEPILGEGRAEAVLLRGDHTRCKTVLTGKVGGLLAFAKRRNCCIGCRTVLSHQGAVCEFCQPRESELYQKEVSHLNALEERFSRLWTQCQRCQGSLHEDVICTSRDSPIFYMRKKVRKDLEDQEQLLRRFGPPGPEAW
T1 sequence (P49005 whole entry, chain 2 of 4): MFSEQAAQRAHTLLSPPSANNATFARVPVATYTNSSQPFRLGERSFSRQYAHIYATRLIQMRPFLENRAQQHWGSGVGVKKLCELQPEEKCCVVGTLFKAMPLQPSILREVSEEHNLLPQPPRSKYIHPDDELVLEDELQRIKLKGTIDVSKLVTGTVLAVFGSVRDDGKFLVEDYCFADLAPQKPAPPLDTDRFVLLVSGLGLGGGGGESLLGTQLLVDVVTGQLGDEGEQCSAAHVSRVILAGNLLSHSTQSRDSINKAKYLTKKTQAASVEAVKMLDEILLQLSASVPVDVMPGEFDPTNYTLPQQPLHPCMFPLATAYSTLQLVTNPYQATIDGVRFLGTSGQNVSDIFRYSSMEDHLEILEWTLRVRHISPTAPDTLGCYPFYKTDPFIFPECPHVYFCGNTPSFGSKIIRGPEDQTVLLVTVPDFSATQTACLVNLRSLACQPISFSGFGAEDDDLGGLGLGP
T1 sequence (Q15054 whole entry, chain 3 of 4): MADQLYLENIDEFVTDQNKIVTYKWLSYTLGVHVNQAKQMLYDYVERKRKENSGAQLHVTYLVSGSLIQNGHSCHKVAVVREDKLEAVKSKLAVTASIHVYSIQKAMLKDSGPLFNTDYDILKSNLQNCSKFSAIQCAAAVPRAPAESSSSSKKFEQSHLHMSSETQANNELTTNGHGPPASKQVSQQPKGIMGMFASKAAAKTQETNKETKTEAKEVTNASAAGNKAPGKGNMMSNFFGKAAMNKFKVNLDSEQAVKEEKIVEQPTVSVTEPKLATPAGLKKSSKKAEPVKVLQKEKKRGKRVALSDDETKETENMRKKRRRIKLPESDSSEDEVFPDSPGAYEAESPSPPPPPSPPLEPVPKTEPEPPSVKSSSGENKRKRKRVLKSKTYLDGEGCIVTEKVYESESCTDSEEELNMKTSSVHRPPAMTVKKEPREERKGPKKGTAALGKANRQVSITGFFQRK
T1 sequence (Q9HCU8 whole entry, chain 4 of 4): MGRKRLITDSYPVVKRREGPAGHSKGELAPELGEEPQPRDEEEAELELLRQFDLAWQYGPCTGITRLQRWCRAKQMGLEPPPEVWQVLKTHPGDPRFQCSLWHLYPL
T3 sequence (P28340 whole entry H1066Y, chain 1 of 4): as the sequence (P28340 whole entry C1076S, chain 1 of 4) above, with H1066Y, S1076C counted along it
T3 sequence (P49005 whole entry, chain 2 of 4): as the sequence (P49005 whole entry, chain 2 of 4) above
T3 sequence (Q15054 whole entry, chain 3 of 4): as the sequence (Q15054 whole entry, chain 3 of 4) above
T3 sequence (Q9HCU8 whole entry, chain 4 of 4): as the sequence (Q9HCU8 whole entry, chain 4 of 4) above
T4 sequence (P28340 whole entry H1066W, chain 1 of 4): as the sequence (P28340 whole entry C1076S, chain 1 of 4) above, with H1066W, S1076C counted along it
T4 sequence (P49005 whole entry, chain 2 of 4): as the sequence (P49005 whole entry, chain 2 of 4) above
T4 sequence (Q15054 whole entry, chain 3 of 4): as the sequence (Q15054 whole entry, chain 3 of 4) above
T4 sequence (Q9HCU8 whole entry, chain 4 of 4): as the sequence (Q9HCU8 whole entry, chain 4 of 4) above
Chain of POLD1 WT (catalytic subunit of Pol delta);POLD2;POLD3;POLD4 (P28340 whole entry, stated change not applied, chain 1 of 4): as the sequence (P28340 whole entry C1076S, chain 1 of 4) above, with S1076C counted along it
Chain of POLD1 WT (catalytic subunit of Pol delta);POLD2;POLD3;POLD4 (P49005 whole entry, stated change not applied, chain 2 of 4): as the sequence (P49005 whole entry, chain 2 of 4) above
Chain of POLD1 WT (catalytic subunit of Pol delta);POLD2;POLD3;POLD4 (Q15054 whole entry, stated change not applied, chain 3 of 4): as the sequence (Q15054 whole entry, chain 3 of 4) above
Chain of POLD1 WT (catalytic subunit of Pol delta);POLD2;POLD3;POLD4 (Q9HCU8 whole entry, stated change not applied, chain 4 of 4): as the sequence (Q9HCU8 whole entry, chain 4 of 4) above

GTTTCTTCAATCTTCATCATACAGGTCAG (ssDNA) [ssDNA probe (Fig 3E,F)]
binds: [1] | [2]

B1: primer-template (Fig 3A,B) (mixed)
DNA 1: GTTTCTTCAATCTTCATCATACAGGTCAG
DNA 2: CTCGTCAGCATCTCGTCTGACCTGTATGATGAAGATTGAAAGAAAC
not listed: [1] | [2] | [11] | [12] | [13]
binds: all other assays above

B2: dsDNA probe (Fig 3C,D) (dsDNA)
DNA 1: GTTTCTTCAATCTTCATCATACAGGTCAG
DNA 2: CTGACCTGTATGATGAAGATTGAAAGAAAC
binds: [11] | [12] | [13]
